Assay results reported in article PMC10942865.

T1: β-TrCP, endogenous, Q9Y297
T1 chain: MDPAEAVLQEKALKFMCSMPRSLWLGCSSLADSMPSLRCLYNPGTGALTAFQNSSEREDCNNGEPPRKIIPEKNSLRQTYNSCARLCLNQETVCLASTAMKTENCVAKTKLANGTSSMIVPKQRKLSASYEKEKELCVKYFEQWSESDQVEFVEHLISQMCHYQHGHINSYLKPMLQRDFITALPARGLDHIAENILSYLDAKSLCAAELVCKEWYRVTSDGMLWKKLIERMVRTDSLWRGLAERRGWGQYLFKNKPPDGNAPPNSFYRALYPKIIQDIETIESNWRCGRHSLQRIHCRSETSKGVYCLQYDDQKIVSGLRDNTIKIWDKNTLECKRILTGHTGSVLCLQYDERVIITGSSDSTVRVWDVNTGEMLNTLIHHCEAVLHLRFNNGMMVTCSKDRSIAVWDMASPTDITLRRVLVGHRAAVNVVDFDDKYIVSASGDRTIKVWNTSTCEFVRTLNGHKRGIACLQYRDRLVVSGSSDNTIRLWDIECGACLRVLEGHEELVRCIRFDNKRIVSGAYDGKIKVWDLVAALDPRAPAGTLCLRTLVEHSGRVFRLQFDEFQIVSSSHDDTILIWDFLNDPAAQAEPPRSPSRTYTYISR


Molecular target: T1, β-TrCP, endogenous, Q9Y297
Experiment: co-immunoprecipitation (IP against Flag tag, Western blot quantification)
Conditions: chain shown with the change; HEK293T cells, 48 h overexpression, N = 3; parent: est. 1.0; read off a plot

ratio to parent	Binder
0.07	Flag-PLK4 wt (polo-like kinase 4), full-length, O00444 K41R (protein) MATCIGEKIEDFKVGNLLGKGSFAGVYRAESIHTGLEVAIRMIDKKAMYKAGMVQRVQNEVKIHCQLKHPSILELYNYFEDSNYVYLVLEMCHNGEMNRYLKNRVKPFSENEARHFMHQIITGMLYLHSHGILHRDLTLSNLLLTRNMNIKIADFGLATQLKMPHEKHYTLCGTPNYISPEIATRSAHGLESDVWSLGCMFYTLLIGRPPFDTDTVKNTLNKVVLADYEMPSFLSIEAKDLIHQLLRRNPADRLSLSSVLDHPFMSRNSSTKSKDLGTVEDSIDSGHATISTAITASSSTSISGSLFDKRRLLIGQPLPNKMTVFPKNKSSTDFSSSGDGNSFYTQWGNQETSNSGRGRVIQDAEERPHSRYLRRAYSSDRSGTSNSQSQAKTYTMERCHSAEMLSVSKRSGGGENEERYSPTDNNANIFNFFKEKTSSSSGSFERPDNNQALSNHLCPGKTPFPFADPTPQTETVQQWFGNLQINAHLRKTTEYDSISPNRDFQGHPDLQKDTSKNAWTDTKVKKNSDASDNAHSVKQQNTMKYMTALHSKPEIIQQECVFGSDPLSEQSKTRGMEPPWGYQNRTLRSITSPLVAHRLKPIRQKTKKAVVSILDSEEVCVELVKEYASQEYVKEVLQISSDGNTITIYYPNGGRGFPLADRPPSPTDNISRYSFDNLPEKYWRKYQYASRFVQLVRSKSPKITYFTRYAKCILMENSPGADFEVWFYDGVKIHKTEDFIQVIEKTGKSYTLKSESEVNSLKEEIKMYMDHANEGHRICLALESIISEEERKTRSAPFFPIIIGRKPGSTSSPKALSPPPSVDSNYPTRERASFNRMVMHSAASPTQAPILNPSMVTNEGLGLTTTASGTDISSNSLKDCLPKSAQLLKSVFVKNVGWATQLTSGAVWVQFNDGSQLVVQAGVSSISYTSPNGQTTRYGENEKLPDYIKQKLQCLSSILLMFSNPTPNFH
0.03	Flag-PLK4 wt (polo-like kinase 4), full-length, O00444 S285A; T289A (protein) MATCIGEKIEDFKVGNLLGKGSFAGVYRAESIHTGLEVAIKMIDKKAMYKAGMVQRVQNEVKIHCQLKHPSILELYNYFEDSNYVYLVLEMCHNGEMNRYLKNRVKPFSENEARHFMHQIITGMLYLHSHGILHRDLTLSNLLLTRNMNIKIADFGLATQLKMPHEKHYTLCGTPNYISPEIATRSAHGLESDVWSLGCMFYTLLIGRPPFDTDTVKNTLNKVVLADYEMPSFLSIEAKDLIHQLLRRNPADRLSLSSVLDHPFMSRNSSTKSKDLGTVEDSIDAGHAAISTAITASSSTSISGSLFDKRRLLIGQPLPNKMTVFPKNKSSTDFSSSGDGNSFYTQWGNQETSNSGRGRVIQDAEERPHSRYLRRAYSSDRSGTSNSQSQAKTYTMERCHSAEMLSVSKRSGGGENEERYSPTDNNANIFNFFKEKTSSSSGSFERPDNNQALSNHLCPGKTPFPFADPTPQTETVQQWFGNLQINAHLRKTTEYDSISPNRDFQGHPDLQKDTSKNAWTDTKVKKNSDASDNAHSVKQQNTMKYMTALHSKPEIIQQECVFGSDPLSEQSKTRGMEPPWGYQNRTLRSITSPLVAHRLKPIRQKTKKAVVSILDSEEVCVELVKEYASQEYVKEVLQISSDGNTITIYYPNGGRGFPLADRPPSPTDNISRYSFDNLPEKYWRKYQYASRFVQLVRSKSPKITYFTRYAKCILMENSPGADFEVWFYDGVKIHKTEDFIQVIEKTGKSYTLKSESEVNSLKEEIKMYMDHANEGHRICLALESIISEEERKTRSAPFFPIIIGRKPGSTSSPKALSPPPSVDSNYPTRERASFNRMVMHSAASPTQAPILNPSMVTNEGLGLTTTASGTDISSNSLKDCLPKSAQLLKSVFVKNVGWATQLTSGAVWVQFNDGSQLVVQAGVSSISYTSPNGQTTRYGENEKLPDYIKQKLQCLSSILLMFSNPTPNFH
